Data from the supplement of paper PMC10065799, “High-throughput profiling of sequence recognition by tyrosine kinases and SH2 domains using bacterial peptide display” (eLife, 2023).

The sequences below were run against FGFR3 (UniProt P22607) (assay: phosphorylation enrichment, bacterial display (enrichment ratio); higher = better substrate or ligand; peptides without Tyr show the background).
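Also: 11-residue human phosphosite peptides and single-mutation variants displayed on the E. coli surface, counted by deep sequencing, each peptide's frequency after selection divided by its frequency in the unselected input library; frequency after pTyr selection over input frequency; kinase dosed for 20-30% of maximal phosphorylation in three min.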

Chain of FGFR3 (P22607 whole entry, looked up): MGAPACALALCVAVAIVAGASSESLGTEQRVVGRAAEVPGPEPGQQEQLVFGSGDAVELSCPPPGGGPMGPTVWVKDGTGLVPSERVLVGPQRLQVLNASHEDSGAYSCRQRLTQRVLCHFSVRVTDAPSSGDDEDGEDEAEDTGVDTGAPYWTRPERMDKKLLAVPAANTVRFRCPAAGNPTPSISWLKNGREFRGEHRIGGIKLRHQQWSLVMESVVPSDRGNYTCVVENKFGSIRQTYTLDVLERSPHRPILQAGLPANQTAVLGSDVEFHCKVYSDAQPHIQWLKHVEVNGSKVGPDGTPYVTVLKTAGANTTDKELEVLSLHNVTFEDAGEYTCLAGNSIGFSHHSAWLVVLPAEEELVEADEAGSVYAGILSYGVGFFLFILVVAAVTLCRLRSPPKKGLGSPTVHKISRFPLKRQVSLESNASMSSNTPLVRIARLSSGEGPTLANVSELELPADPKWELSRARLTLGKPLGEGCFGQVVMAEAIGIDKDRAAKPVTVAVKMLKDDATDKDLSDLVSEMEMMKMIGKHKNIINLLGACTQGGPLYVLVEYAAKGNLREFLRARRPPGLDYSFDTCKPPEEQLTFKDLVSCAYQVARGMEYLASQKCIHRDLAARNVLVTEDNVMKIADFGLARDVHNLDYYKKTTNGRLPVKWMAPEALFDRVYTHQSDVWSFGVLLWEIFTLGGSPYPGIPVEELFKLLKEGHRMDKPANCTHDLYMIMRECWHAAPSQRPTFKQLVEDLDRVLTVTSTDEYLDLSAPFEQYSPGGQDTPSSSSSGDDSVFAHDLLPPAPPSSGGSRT

First: GITVAYTIPKK [UBA5_Y372]
Second: PIDLFYLMDLS [ITGB2_Y131_YF]
The phosphorylation enrichment of the first is lower: 0.534 for the first, 1.13 for the second.

Compared with GKAFIYASHIV [ZNF573_Y229], KRYRIYHLATS [BRCA2_Y3009] is lower in phosphorylation enrichment: 0.602 for the first, 0.509 for the second.

First: ICTVDYLLRLQ [RYR1_Y3921]
Second: VGSIEYLKREW [KCNMA1_Y885]
The phosphorylation enrichment of the first is higher: 0.733 for the first, 0.612 for the second.

Going from EFKKKYSDADI [CKAP5_Y1860_YF] to GVLKEYVVKVL [CPS1_Y529_G530V], the phosphorylation enrichment rises from 0.476 to 0.546.

Going from ELPEKYSQNIY [PKP2_Y626] to RSRQIYDAYIM [GRK3_Y109], the phosphorylation enrichment rises from 0.763 to 0.8.

First: KAIMIYVSSFY [ACTN4_Y260_T259I]
Second: DLDTEYGSGFP [RNASEH2A_Y206_D205E_YF]
The phosphorylation enrichment of the first is lower: 0.701 for the first, 0.958 for the second.

Going from GGFTCCCDGKK [PROS1_Y266_Y266C_YF] to ISGGGYRARPA [FGB_Y71], the phosphorylation enrichment falls from 0.755 to 0.404.

First: RIILLYIFLKN [STXBP1_Y411]
Second: PGRRFYVVACD [RNASE3_Y134]
The phosphorylation enrichment of the first is lower: 0.489 for the first, 0.916 for the second.

Compared with KAIDMYLMGCF [GABRB2_Y308], RIGRKCKKVRF [F8_Y442_Y442C] is lower in phosphorylation enrichment: 1.04 for the first, 0.572 for the second.

Compared with FDCKWYIPLTD [BCR_Y756_YF], NDLMEYPKQHG [ASS1_Y163_A164P] is lower in phosphorylation enrichment: 1.06 for the first, 0.48 for the second.

Compared with LNAGAYSKVVQ [PPT1_Y172], ADARMCGVLPW [PLP1_Y207_Y207C] is lower in phosphorylation enrichment: 0.686 for the first, 0.671 for the second.

First: RSRSSYTHGLN [MYCT1_Y116]
Second: DAVAVCHGKIS [SH2D1A_Y7_Y7C]
The phosphorylation enrichment of the first is higher: 0.88 for the first, 0.628 for the second.

Going from PFTRNYYVQAV [CYBA_Y87_R90Q] to LFSGDYFRIQG [DDR2_Y740_YF], the phosphorylation enrichment rises from 1.9 to 15.7.

Compared with SVKVYYKKCWS [EPHA7_Y202], GGTPLYRDRQG [AGXT_Y194_M195R] is lower in phosphorylation enrichment: 0.733 for the first, 0.423 for the second.

Compared with GSCQEYTGAPY [NAXD_Y85_G81S], RHNEIYEIKVD [LGR5_Y387] is higher in phosphorylation enrichment: 0.7 for the first, 1.02 for the second.

Going from KLYRVYCDMNT [FGB_Y269_P265L] to KASRKYFAMKI [AKT3_Y173_G171R_YF], the phosphorylation enrichment falls from 0.693 to 0.363.

DPLLTYRFPPK [LMNA_Y481] was tested, and the phosphorylation enrichment was 0.446.

Each sequence was assayed on Fer (mouse) in the same assay as above.

First: GITVAYTIPKK [UBA5_Y372]
Second: PIDLFYLMDLS [ITGB2_Y131_YF]
The phosphorylation enrichment of the first is lower: 0.384 for the first, 0.426 for the second.

First: GKAFIYASHIV [ZNF573_Y229]
Second: KRYRIYHLATS [BRCA2_Y3009]
The phosphorylation enrichment of the first is higher: 1.16 for the first, 0.313 for the second.

Compared with ICTVDYLLRLQ [RYR1_Y3921], VGSIEYLKREW [KCNMA1_Y885] is lower in phosphorylation enrichment: 0.736 for the first, 0.447 for the second.

First: EFKKKYSDADI [CKAP5_Y1860_YF]
Second: GVLKEYVVKVL [CPS1_Y529_G530V]
The phosphorylation enrichment of the first is lower: 0.331 for the first, 0.384 for the second.

Compared with ELPEKYSQNIY [PKP2_Y626], RSRQIYDAYIM [GRK3_Y109] is higher in phosphorylation enrichment: 0.475 for the first, 14.6 for the second.

Going from KAIMIYVSSFY [ACTN4_Y260_T259I] to DLDTEYGSGFP [RNASEH2A_Y206_D205E_YF], the phosphorylation enrichment rises from 0.422 to 0.799.

First: GGFTCCCDGKK [PROS1_Y266_Y266C_YF]
Second: ISGGGYRARPA [FGB_Y71]
The phosphorylation enrichment of the first is higher: 0.542 for the first, 0.312 for the second.

Going from RIILLYIFLKN [STXBP1_Y411] to PGRRFYVVACD [RNASE3_Y134], the phosphorylation enrichment rises from 0.45 to 0.52.

Going from KAIDMYLMGCF [GABRB2_Y308] to RIGRKCKKVRF [F8_Y442_Y442C], the phosphorylation enrichment falls from 0.486 to 0.363.

Compared with FDCKWYIPLTD [BCR_Y756_YF], NDLMEYPKQHG [ASS1_Y163_A164P] is lower in phosphorylation enrichment: 0.66 for the first, 0.377 for the second.

First: LNAGAYSKVVQ [PPT1_Y172]
Second: ADARMCGVLPW [PLP1_Y207_Y207C]
The phosphorylation enrichment of the first is higher: 1.02 for the first, 0.44 for the second.

Going from RSRSSYTHGLN [MYCT1_Y116] to DAVAVCHGKIS [SH2D1A_Y7_Y7C], the phosphorylation enrichment falls from 0.705 to 0.467.

First: PFTRNYYVQAV [CYBA_Y87_R90Q]
Second: LFSGDYFRIQG [DDR2_Y740_YF]
The phosphorylation enrichment of the first is lower: 0.555 for the first, 0.739 for the second.

Going from SVKVYYKKCWS [EPHA7_Y202] to GGTPLYRDRQG [AGXT_Y194_M195R], the phosphorylation enrichment falls from 0.483 to 0.415.

Compared with GSCQEYTGAPY [NAXD_Y85_G81S], RHNEIYEIKVD [LGR5_Y387] is higher in phosphorylation enrichment: 0.494 for the first, 0.915 for the second.

Going from KLYRVYCDMNT [FGB_Y269_P265L] to KASRKYFAMKI [AKT3_Y173_G171R_YF], the phosphorylation enrichment falls from 0.52 to 0.389.

For DPLLTYRFPPK [LMNA_Y481], the phosphorylation enrichment was 0.292.

These sequences were tested against Fes (UniProt P07332) in the same assay as above.
Chain of Fes (P07332 whole entry, looked up): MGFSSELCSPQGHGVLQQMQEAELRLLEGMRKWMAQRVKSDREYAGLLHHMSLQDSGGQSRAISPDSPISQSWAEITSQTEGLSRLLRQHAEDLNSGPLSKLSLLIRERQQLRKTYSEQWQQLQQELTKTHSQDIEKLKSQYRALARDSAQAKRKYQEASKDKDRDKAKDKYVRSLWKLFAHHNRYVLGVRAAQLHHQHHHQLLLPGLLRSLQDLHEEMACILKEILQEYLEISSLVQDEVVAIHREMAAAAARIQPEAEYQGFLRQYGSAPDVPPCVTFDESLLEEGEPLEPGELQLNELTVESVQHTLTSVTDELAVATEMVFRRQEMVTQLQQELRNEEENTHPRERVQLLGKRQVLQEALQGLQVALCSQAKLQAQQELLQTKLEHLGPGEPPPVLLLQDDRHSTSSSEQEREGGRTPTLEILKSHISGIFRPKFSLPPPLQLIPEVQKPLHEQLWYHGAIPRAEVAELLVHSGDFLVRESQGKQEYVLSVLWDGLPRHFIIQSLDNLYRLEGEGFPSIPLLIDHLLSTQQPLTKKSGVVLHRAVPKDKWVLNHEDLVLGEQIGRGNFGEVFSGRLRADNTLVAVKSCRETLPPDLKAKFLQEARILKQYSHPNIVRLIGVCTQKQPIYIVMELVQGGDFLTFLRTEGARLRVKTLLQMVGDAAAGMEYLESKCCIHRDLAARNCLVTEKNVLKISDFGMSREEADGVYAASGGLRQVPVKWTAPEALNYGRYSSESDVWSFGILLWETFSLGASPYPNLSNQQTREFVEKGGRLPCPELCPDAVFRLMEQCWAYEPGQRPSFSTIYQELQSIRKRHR

Compared with GITVAYTIPKK [UBA5_Y372], PIDLFYLMDLS [ITGB2_Y131_YF] is higher in phosphorylation enrichment: 0.739 for the first, 1.99 for the second.

Going from GKAFIYASHIV [ZNF573_Y229] to KRYRIYHLATS [BRCA2_Y3009], the phosphorylation enrichment falls from 1 to 0.491.

Compared with ICTVDYLLRLQ [RYR1_Y3921], VGSIEYLKREW [KCNMA1_Y885] is lower in phosphorylation enrichment: 1.41 for the first, 0.967 for the second.

Compared with EFKKKYSDADI [CKAP5_Y1860_YF], GVLKEYVVKVL [CPS1_Y529_G530V] is higher in phosphorylation enrichment: 0.683 for the first, 1.06 for the second.

Compared with ELPEKYSQNIY [PKP2_Y626], RSRQIYDAYIM [GRK3_Y109] is lower in phosphorylation enrichment: 0.921 for the first, 0.807 for the second.

Compared with KAIMIYVSSFY [ACTN4_Y260_T259I], DLDTEYGSGFP [RNASEH2A_Y206_D205E_YF] is higher in phosphorylation enrichment: 1.08 for the first, 1.34 for the second.

Going from GGFTCCCDGKK [PROS1_Y266_Y266C_YF] to ISGGGYRARPA [FGB_Y71], the phosphorylation enrichment falls from 1.34 to 0.665.

Going from RIILLYIFLKN [STXBP1_Y411] to PGRRFYVVACD [RNASE3_Y134], the phosphorylation enrichment rises from 1.01 to 1.65.

Going from KAIDMYLMGCF [GABRB2_Y308] to RIGRKCKKVRF [F8_Y442_Y442C], the phosphorylation enrichment falls from 1.21 to 0.595.

Going from FDCKWYIPLTD [BCR_Y756_YF] to NDLMEYPKQHG [ASS1_Y163_A164P], the phosphorylation enrichment falls from 1.49 to 0.855.

Going from LNAGAYSKVVQ [PPT1_Y172] to ADARMCGVLPW [PLP1_Y207_Y207C], the phosphorylation enrichment rises from 0.974 to 1.

Compared with RSRSSYTHGLN [MYCT1_Y116], DAVAVCHGKIS [SH2D1A_Y7_Y7C] is lower in phosphorylation enrichment: 1.35 for the first, 0.745 for the second.

First: PFTRNYYVQAV [CYBA_Y87_R90Q]
Second: LFSGDYFRIQG [DDR2_Y740_YF]
The phosphorylation enrichment of the first is lower: 1.1 for the first, 2.04 for the second.

Going from SVKVYYKKCWS [EPHA7_Y202] to GGTPLYRDRQG [AGXT_Y194_M195R], the phosphorylation enrichment falls from 1.25 to 0.499.

Compared with GSCQEYTGAPY [NAXD_Y85_G81S], RHNEIYEIKVD [LGR5_Y387] is higher in phosphorylation enrichment: 0.894 for the first, 1.18 for the second.

Compared with KLYRVYCDMNT [FGB_Y269_P265L], KASRKYFAMKI [AKT3_Y173_G171R_YF] is lower in phosphorylation enrichment: 1.07 for the first, 0.52 for the second.

DPLLTYRFPPK [LMNA_Y481] was tested, and the phosphorylation enrichment was 0.513.

The sequences below were run against Fyn (UniProt P06241) in the same assay as above.
Chain of Fyn (P06241 whole entry, looked up): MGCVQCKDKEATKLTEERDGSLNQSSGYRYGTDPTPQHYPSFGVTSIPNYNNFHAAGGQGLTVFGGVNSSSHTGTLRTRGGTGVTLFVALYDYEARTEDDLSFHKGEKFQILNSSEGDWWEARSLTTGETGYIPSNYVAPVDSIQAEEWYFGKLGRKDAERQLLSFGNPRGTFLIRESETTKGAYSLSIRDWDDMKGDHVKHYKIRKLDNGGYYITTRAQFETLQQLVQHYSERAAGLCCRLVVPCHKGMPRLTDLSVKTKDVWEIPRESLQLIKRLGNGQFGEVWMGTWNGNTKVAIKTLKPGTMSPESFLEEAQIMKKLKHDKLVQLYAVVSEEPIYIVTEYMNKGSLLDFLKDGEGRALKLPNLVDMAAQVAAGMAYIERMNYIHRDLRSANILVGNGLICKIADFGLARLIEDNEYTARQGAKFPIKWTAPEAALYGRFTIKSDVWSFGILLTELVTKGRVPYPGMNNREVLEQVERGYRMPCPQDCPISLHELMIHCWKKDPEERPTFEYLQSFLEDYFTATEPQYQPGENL

Going from GITVAYTIPKK [UBA5_Y372] to PIDLFYLMDLS [ITGB2_Y131_YF], the phosphorylation enrichment rises from 0.475 to 0.599.

Going from GKAFIYASHIV [ZNF573_Y229] to KRYRIYHLATS [BRCA2_Y3009], the phosphorylation enrichment falls from 0.666 to 0.445.

Going from ICTVDYLLRLQ [RYR1_Y3921] to VGSIEYLKREW [KCNMA1_Y885], the phosphorylation enrichment falls from 0.539 to 0.359.

Compared with EFKKKYSDADI [CKAP5_Y1860_YF], GVLKEYVVKVL [CPS1_Y529_G530V] is lower in phosphorylation enrichment: 0.459 for the first, 0.389 for the second.

Going from ELPEKYSQNIY [PKP2_Y626] to RSRQIYDAYIM [GRK3_Y109], the phosphorylation enrichment rises from 0.762 to 15.2.

Compared with KAIMIYVSSFY [ACTN4_Y260_T259I], DLDTEYGSGFP [RNASEH2A_Y206_D205E_YF] is higher in phosphorylation enrichment: 0.368 for the first, 0.744 for the second.

Going from GGFTCCCDGKK [PROS1_Y266_Y266C_YF] to ISGGGYRARPA [FGB_Y71], the phosphorylation enrichment falls from 0.463 to 0.416.

Compared with RIILLYIFLKN [STXBP1_Y411], PGRRFYVVACD [RNASE3_Y134] is higher in phosphorylation enrichment: 0.212 for the first, 0.389 for the second.

Going from KAIDMYLMGCF [GABRB2_Y308] to RIGRKCKKVRF [F8_Y442_Y442C], the phosphorylation enrichment rises from 0.515 to 0.55.

First: FDCKWYIPLTD [BCR_Y756_YF]
Second: NDLMEYPKQHG [ASS1_Y163_A164P]
The phosphorylation enrichment of the first is lower: 0.41 for the first, 0.503 for the second.

Compared with LNAGAYSKVVQ [PPT1_Y172], ADARMCGVLPW [PLP1_Y207_Y207C] is lower in phosphorylation enrichment: 0.529 for the first, 0.436 for the second.

Compared with RSRSSYTHGLN [MYCT1_Y116], DAVAVCHGKIS [SH2D1A_Y7_Y7C] is lower in phosphorylation enrichment: 0.956 for the first, 0.472 for the second.

First: PFTRNYYVQAV [CYBA_Y87_R90Q]
Second: LFSGDYFRIQG [DDR2_Y740_YF]
The phosphorylation enrichment of the first is lower: 0.46 for the first, 1.36 for the second.

Compared with SVKVYYKKCWS [EPHA7_Y202], GGTPLYRDRQG [AGXT_Y194_M195R] is higher in phosphorylation enrichment: 0.352 for the first, 0.378 for the second.

Going from GSCQEYTGAPY [NAXD_Y85_G81S] to RHNEIYEIKVD [LGR5_Y387], the phosphorylation enrichment rises from 0.441 to 8.54.

Going from KLYRVYCDMNT [FGB_Y269_P265L] to KASRKYFAMKI [AKT3_Y173_G171R_YF], the phosphorylation enrichment falls from 0.608 to 0.359.

DPLLTYRFPPK [LMNA_Y481] was tested, and the phosphorylation enrichment was 0.502.
